The target of data set [1] is T1, BACE2 (Homo sapiens, UniProt Q9Y5Z0).
T1 sequence (Q9Y5Z0 63-518): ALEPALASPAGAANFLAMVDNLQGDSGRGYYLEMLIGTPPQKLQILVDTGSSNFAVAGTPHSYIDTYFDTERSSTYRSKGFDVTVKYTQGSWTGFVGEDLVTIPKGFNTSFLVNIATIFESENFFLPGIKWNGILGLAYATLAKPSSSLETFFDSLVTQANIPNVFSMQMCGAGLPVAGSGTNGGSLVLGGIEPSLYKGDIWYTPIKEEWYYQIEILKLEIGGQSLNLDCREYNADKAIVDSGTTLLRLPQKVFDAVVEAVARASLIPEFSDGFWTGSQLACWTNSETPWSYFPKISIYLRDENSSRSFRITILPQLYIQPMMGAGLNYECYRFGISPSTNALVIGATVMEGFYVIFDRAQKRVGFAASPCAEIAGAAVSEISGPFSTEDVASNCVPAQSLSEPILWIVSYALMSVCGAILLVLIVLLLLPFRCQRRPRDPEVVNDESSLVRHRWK
The experiment in a line: SPR analysis, BACE2. It is filed as binding. As for the experimental part:
Further characterization of this antibody was performed to better understand its function.

The nature of data set [2]: Serum PK in BALB/C and BACE1 knock-out mice. The class given is in vivo, mouse. The protocol: Additionally, PK data was obtained after dosing with YW412.8.31 anti-BACE1 antibody in wild-type and BACE1 knock-out mice. A single dose of anti-BACE1 (1 or 10 mg/kg) was delivered via IV injection to BALB/C mice. Serum PK was analyzed out to 21 days post-dose.
Total anti-BACE1 antibody concentrations in mouse serum and brain samples were measured as follows. Antibody concentrations in mouse serum and brain samples were measured using an enzyme-linked immunosorbent assay (ELISA). NUNC 384 well Maxisorp immunoplates (Neptune, N.J.) were coated with F(ab′)2 fragment of donkey anti-human IgG, Fc fragment specific polyclonal antibody (Jackson ImmunoResearch, West Grove, Pa.) overnight at 4° C. Plates were blocked with phosphate-buffered saline (PBS) containing 0.5% bovine serum albumin (BSA) for 1 hour at room temperature the next day. Each antibody (Control IgG and anti-BACE1) was used as a standard to quantify the respective antibody concentrations. […] Bound antibody was detected with horseradish peroxidase conjugated F(ab′)2 goat anti-human IgG, Fc specific polyclonal antibody (Jackson ImmunoResearch). […] Absorbance was measured at a wavelength of 450 nm with a reference of 630 nm on a Multiskan Ascent reader (Thermo Scientific, Hudson, N.H.). Concentrations were determined from the standard curve using a four-parameter non-linear regression program. […]

B1: YW412.8.31: affinity matured form of YW412.8 anti-BACE1 antibody (antibody, V domains shown)
VH: EVQLVESGGGLVQPGGSLRLSCAASGFTFLGYGIHWVRQAPGKGLEWVGWISPAGGSTDYADSVKGRFTISADTSKNTAYLQMNSLRAEDTAVYYCARGPFSPWVMDYWGQGTLVTVSS
VL: DIQMTQSPSSLSASVGDRVTITCRASQDVSTAVAWYQQKPGKAPKLLIYSASFLYSGVPSRFSGSGSGTDFTLTISSLQPEDFATYYCQQFPTYLPTFGQGTKVEIK
Regarding B1, the “binding to BACE2” value in data set [1] was “does not bind”. The “serum PK kinetics” value was “non-linear” in data set [2] (1 or 10 mg/kg single IV, BALB/C mice, to 21 days) and “linear PK” in data set [2] (single dose, BACE1−/− mice).

For the origin of these results see US9879094B2, “Nucleic acid molecules encoding for BACE1 antibodies” (Genentech, Inc., priority 2010, dated 2018).
